Columns and labels:
OV90 cells = assay: MTT cell viability assay, antibody and chemotherapeutic agent treatment; type: cell-based, human; details: 72 to 144 hours, S3F 0.033 nM-500 nM; for cell viability (MTT assay): STn+CD133+ OV90 and CSC sub-fractions, normalized to untreated control
Experimental: STn+CD133+OV90 and CSC sub-fractions were treated with unconjugated anti-STn antibody S3F [0.033 nM-500 nM] or with different concentrations of chemotherapeutic agents paclitaxel and/or carboplatin. OV90 cells were cultured for 72 to 144 hours with the indicated concentrations and cell viability was analyzed by MTT assay (FIG. 2). All values were normalized to the untreated control.

CSC tumors = assay: Anti-CSC activity in vivo, tumors in NOD/SCID mice
Experimental: The growth conditions of CSC subfractions in NOD/SCID mice is established and analyzed. Anti-STn antibodies are administered to mice as conjugates with chemotherapy and treated mice are tested for toxicity and efficacy through mouse observations and weights.
An equivalent amount of serially-diluted positive or negative subfraction cells (i.e., 1×10^5, 1×10^4, and 1×10^3/mouse; 2-8 mice/group) are injected subcutaneously (s.c.) into NOD/SCID mice, to compare their potential to generate tumors. Following injection of tumor cells, the mice are monitored daily for evidence of tumor formation and general health.
For treatment, tumors may be generated in mice from up to four sources: 1) primary ovarian tumors; 2) xenograft tumors previously established in NOD/SCID mice; 3) cryopreserved xenograft tumor tissue; or 4) human ovarian cancer cell lines or isolated cell line subfractions based on CD133/STn expression. For each tumor type, once a sufficient number of mice have tumors ranging from 200-300 mm^3 in volume, the mice are randomized into 4 groups (n=8-14 mice/group) such that the mean group tumor volumes are essentially equivalent. […]
Tumors are then measured twice weekly with calipers [tumor volume=(Lmm×Wmm×[…])/2]. […]

[1] = test system: STn in ovarian cancer tissue; assay: Immunohistochemical staining of ovarian cancer tissue sections; type: binding; details: S3F as primary antibody; peroxidase-based secondary detection; compared to normal IgG and no primary antibody
Source text: Tissue sections from ovarian cancer tissue were subjected to immunohistochemical staining to identify cells expressing STn using S3F antibody as a primary antibody. Bound antibody was detected using a peroxidase-based secondary detection system.

N.N.O=C([O-])C1(C(=O)[O-])CCC1.[Pt+2] [carboplatin, reference compound]
cell viability (MTT assay) (OV90 cells): Cell viability was reduced

CC(=O)O[C@H]1C(=O)[C@@]2(C)[C@H]([C@H](OC(=O)c3ccccc3)[C@]3(O)C[C@H](OC(=O)[C@H](O)[C@@H](NC(=O)c4ccccc4)c4ccccc4)C(C)=C1C3(C)C)[C@]1(OC(C)=O)CO[C@@H]1C[C@@H]2O [paclitaxel, reference compound]
cell viability (MTT assay) (OV90 cells): Cell viability was reduced

B1: S3F: anti-STn IgG2a antibody combining 3F1 variable domains with IgG2a constant domains; heavy chain SEQ ID NO: 5, light chain SEQ ID NO: 6 (antibody)
heavy: QVQLQQSDAELVKPGASVKISCKASGYTFTDHAIHWVKQKPEQGLDWIGYISPGNGDIKYNEKFKDKVTLTADKSSSTACMHLNSLTSEDSAVYFCKRSLLALDYWGQGTTLTVSSAKTTAPSVYPLAPVCGDTTGSSVTLGCLVKGYFPEPVTLTWNSGSLSSGVHTFPAVLQSDLYTLSSSVTVTSSTWPSQSITCNVAHPASSTKVDKKIEPRGPTIKPCPPCKCPAPNLLGGPSVFIFPPKIKDVLMISLSPIVTCVVVDVSEDDPDVQISWFVNNVEVHTAQTQTHREDYNSTLRVVSALPIQHQDWMSGKEFKCKVNNKDLPAPIERTISKPKGSVRAPQVYVLPPPEEEMTKKQVTLTCMVTDFMPEDIYVEWTNNGKTELNYKNTEPVLDSDGSYFMYSKLRVEKKNWVERNSYSCSVVHEGLHNHHTTKSFSRTPGK
light: DIVMTQSHKFMSTSVGDRVSITCKASQDVGTNIAWYQQKPGRSPKVLIYSASTRHTGVPDRFTGSGSGTDFTLTISNVQSEDLTDYFCQQYSSFPLTFGVGTKLELKRADAAPTVSIFPPSSEQLTSGGASVVCFLNNFYPKDINVKWKIDGSERQNGVLNSWTDQDSKDSTYSMSSTLTLTKDEYERHNSYTCEATHKTSTSPIVKSFNRNEC
dose dependence of effect on cell viability (OV90 cells; OV90 cells): most effective at higher doses tested
cell viability (MTT assay) (OV90 cells): Cell viability was reduced
efficacy in combination with standard chemotherapy agents used for ovarian cancer (CSC tumors): increases the efficacy of the antibody
growth of CSC tumors (CSC tumors; i.p. once weekly): capable of delaying the growth of or eradicating CSC tumors
immunohistochemical staining [1]: Numerous cells showed positive staining
